Measurements reported in US9340577B2, “HLA binding motifs and peptides and their uses” (priority 1992, dated 2016).
Where two headings read alike, the source gives them in different places. No end group written: not given here.

Key:
[1] = biological target: A2.1 HLA molecules (Homo sapiens, UniProt P04439, D140Y/D185E/D98H/E176V/E277Q/G131W/G231S/I119V/I121R/I166T/I218V/L300P/L318F/N151K/N90K/P208A/P217A/Q86G/Q94H/R138H/R169H/T345S); format: binding; design: A*0201 / A2.1 Binding / A2 Bind. / A2 / A2.1 (binding capacity): scale not given here
[2] = biological target: DR1 (DRB1*0101) (Homo sapiens, UniProt P01903+P01911, A100R/D57E/F55L/F60I/F76Y/I96L/L162R/M171V/P40L/Q125E/R42F/V115G/Y59C); experiment: biochemical; format: binding

1.0092 (TLTCGFACL) [Peptide 1.0092]
A2.1 Binding [1]: 0.0004

1.0187 (HLLVGSSBL) [Peptide 1.0187]
A2.1 Binding [1]: 0.0018

1.0500 (IMAKNBVFCV) [Peptide 1.0500]
A2.1 (binding capacity) [1]: 0.0088

1.0689 (VLKDAIKDLV) [Peptide 1.0689]
A2.1 (binding capacity) [1]: 0.0002

1.0876 (FLCILLLCL) [Peptide 1.0876]
A2.1 Binding [1]: 0.0007

ALASCMGLI
A2 Bind. [1]: 0.0110

ALBRWGLLV [Peptide 34.0132]
A*0201 [1]: 0.0960

ALGRNSFEV
A2 Bind. [1]: 0.0570

ALHLFKTTV
A2 Bind. [1]: 0.0170

ALISFLLLA
A2 Bind. [1]: 0.2200

ALLDGGNML
A2 Bind. [1]: 0.0320

ALLLVLALL
A2.1 Binding [1]: 0.0014

ALMDLLMFS
A2 Bind. [1]: 0.4300

ALMPLYASI
A2 Bind. [1]: 0.0760

ALPPASPSA
A2 Bind. [1]: 0.0710

ALSLIVNLL
A2 Bind. [1]: 0.0470

AMGLVCVQV
A2.1 relative binding (ratio of binding of test peptide relative to standard peptide) [1]: 0.012

AMLTACVEV
A2 Bind. [1]: 0.1000 | A2.1 Binding [1]: 0.089

AMPRRVLHA
A2.1 Binding [1]: 0.0014

AMSFTFTTL
A2.1 Binding [1]: 0.0005

AMSRNLFRV
A2 Bind. [1]: 0.1500 | A2.1 Binding [1]: 0.15

CLFHIVNLI
A2 Bind. [1]: 0.2100

CLGWLTGMDI
A2 Bind. [1]: 0.0190

DLKQMERVV
A2.1 Binding [1]: 0

DMLGRVFFV
A2 Bind. [1]: 0.0110 | A2.1 Binding [1]: 0.011

ELKKVSVL
A2.1 Binding [1]: 0

ELKQTRVNL
A2.1 Binding [1]: 0

ELQMMQDWV
A2.1 Binding [1]: 0.0001

ELSIFRERL
A2.1 Binding [1]: 0.0002

FLGLSPTVWV [listing 1 of 2 here]
A2 Bind. [1]: 0.0300

FLGLSPTVWV [listing 2 of 2 here]
A2.1 relative binding (ratio of binding of test peptide relative to standard peptide) [1]: 0.030

FLLAQFTSA
A2 [1]: 0.6600 | A2 Bind. [1]: 0.6600

FLPSDFFPSI
A2 Bind. [1]: 0.2100

FLRVQQKAL
A2.1 Binding [1]: 0.0002

FMLLLCLIFL [listing 1 of 2 here]
A2 Bind. [1]: 0.0450

FMLLLCLIFL [listing 2 of 2 here]
A2.1 relative binding (ratio of binding of test peptide relative to standard peptide) ([1]; standard […], IC50 5.0, IC50 = 5.0 divided by ratio): 0.045

FMQTYLVTL
A2.1 Binding [1]: 0.68

FMWTYLVTL
A2 Bind. [1]: 0.6800

GLCAVFADV
A2.1 relative binding (ratio of binding of test peptide relative to standard peptide) [1]: 0.030

GLCQVFADV
A2 Bind. [1]: 0.0300

GLLGCIITSL
A2 [1]: 0.0610

GLRDCTMLV [Peptide F124.11]
A*0201 [1]: 0.0120

GLRQLKGAL
A2.1 Binding [1]: 0.0001

GLSYDGLLV
A2.1 relative binding (ratio of binding of test peptide relative to standard peptide) [1]: 0.0047

GLWCVLFFV
A2 Bind. [1]: 0.4700 | A2.1 Binding [1]: 0.47

GLWIRTPPV [listing 1 of 2 here]
A2 Bind. [1]: 0.3600

GLWIRTPPV [listing 2 of 2 here]
A2.1 relative binding (ratio of binding of test peptide relative to standard peptide) [1]: 0.36

GMLPVCPLI
A2 Bind. [1]: 0.0520

GTDMKLRLIASPETH [Peptide 9014.0099]
IC50 [2]: 18 nM

GTDMKLRLLASPETH [Peptide 9014.0100]
IC50 [2]: 13 nM

GTDMKLRLNASPETH [Peptide 9014.0101]
IC50 [2]: 225 nM

GTDMKLRLSASPETH [Peptide 9014.0102]
IC50 [2]: 65 nM

GTDMKLRLTASPETH [Peptide 9014.0103]
IC50 [2]: 45 nM

GTDMKLRLVASPETH [Peptide 9014.0104]
IC50 [2]: 17 nM

GTDWKLRLPASPETH [Peptide 9014.0094]
IC50 [2]: 799 nM

GTDYKLRLPASPETH [Peptide 9014.0095]
IC50 [2]: 594 nM

HLPDLVHFA
A2 Bind. [1]: 0.1100

HLPDRVHFA
A2 Bind. [1]: 0.0160

IIGAETFYV
A2 [1]: 0.0260 | A2 Bind. [1]: 0.0260

IISAVVGILL
A2 Bind. [1]: 0.0120

IISCTCPTV
A2 Bind. [1]: 0.0190

ILCWGELMTL
A2 Bind. [1]: 0.1900

ILGFVFTLT
A2 Bind. [1]: 0.2600

ILGFVFTLTV
A2 Bind. [1]: 0.0550

ILGLLGFAV [listing 1 of 2 here]
A2 Bind. [1]: 0.0600

ILGLLGFAV [listing 2 of 2 here]
A2.1 relative binding (ratio of binding of test peptide relative to standard peptide) [1]: 0.060

ITDFGLARALDIDET [Peptide 9014.0183]
IC50 [2]: 25 nM

ITDFGLARSLDIDET [Peptide 9014.0188]
IC50 [2]: 69 nM

ITDIGLARLLDIDET [Peptide 9014.0177]
IC50 [2]: 907 nM

KA SEYLQLV
A2 Bind. [1]: 0.0110

KEILDEAYLMAGVGS [Peptide 9014.0170]
IC50 [2]: 969 nM

KFFGSLAFLPESFDGDPA [Peptide 9014.0231]
IC50 [2]: 225 nM

KHFGSLAFLPESFDGDPA [Peptide 9014.0232]
IC50 [2]: 631 nM

KIFGSLAFLPESHDGDPA [9014,0255]
IC50 [2]: 813 nM

KIFGSLAHLPESFDGDPA [Peptide 9014.0247]
IC50 [2]: 950 nM

KIFGSLAILPESFDGDPA [Peptide 9014.0248]
IC50 [2]: 382 nM

KIFGSLAVLPESFDGDPA [Peptide 9014.0251]
IC50 [2]: 229 nM

KIFGSLAWLPESFDGDPA [Peptide 9014.0252]
IC50 [2]: 120 nM

KIFGSLAYLPESFDGDPA [Peptide 9014.0253]
IC50 [2]: 636 nM

KIFGSLLFLPESFDGDPA [Peptide 9014.0241]
IC50 [2]: 433 nM

KIFGSLNFLPESFDGDPA [Peptide 9014.0242]
IC50 [2]: 225 nM
